Assay results as given in US20220259315A1.

What was measured:
[1] = biological target: human PD-1 (cell surface) (human) (UniProt Q15116); assay: column 'Affinity (nM)'; per the footnote of Table 2, FACS staining of cell surface PD-1 on activated CD4 T cells
[2] = biological target: human PD-1 (cell surface) (human) (UniProt Q15116)
[3] = biological target: human PD-1 (cell surface) (human) (UniProt Q15116); assay: column 'Affinity (nM)'; per the footnote of Table 2, FACS staining of cell surface PD-1 on activated CD4 T cells (Table 5 prints 0.6 for MK3575)

human PD-1 (cell surface) (human), sequence (Q15116 25-288 limits assumed): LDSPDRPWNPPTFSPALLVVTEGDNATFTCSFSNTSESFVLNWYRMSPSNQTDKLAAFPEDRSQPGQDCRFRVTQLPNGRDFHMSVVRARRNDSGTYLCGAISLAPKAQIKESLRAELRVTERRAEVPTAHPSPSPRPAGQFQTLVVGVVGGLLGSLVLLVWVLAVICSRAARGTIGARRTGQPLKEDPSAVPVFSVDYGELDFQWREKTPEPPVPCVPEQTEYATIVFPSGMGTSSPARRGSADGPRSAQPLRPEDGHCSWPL

## BMS-5C4 (antibody)
[1]
  Affinity: 0.6 nM
[2]
  EFRA, column 'Functional effect: % CFSE low CD8 T cells': 175%

## IgG1 control (antibody)
[2]
  EFRA, column 'Functional effect: % CFSE low CD8 T cells': 100%

## MK-3475 (pembrolizumab) (antibody)
[3]
  Affinity: 0.5 nM
